The text below walks through data of patent USRE44389.

Assay [1] deals with Fcγ receptors on monocytes (human blood). Briefly: FACS on human monocytes, antibody 10 µg/ml; negative control.
Assay [2] addresses Fcγ receptors on granulocytes (human blood). The assay can be described thus: FACS on human granulocytes, antibody 10 µg/ml.
The target in assay [3] is Fcγ receptors on monocytes (human blood). The assay can be described thus: FACS on human monocytes, antibody 10 µg/ml.

“Human IgG4 (CLB, the Netherlands), negative control (antibody)” returned a % monocytes binding antibody in assay [1] of 9.4%.

In turn, “HuMab 002 Fc variant IgG4v1 (S228P; L235E) (antibody)” returned a % granulocytes binding antibody in assay [2] of 1.6%. Moreover, the % monocytes binding antibody in assay [3] is 14.5%.
